Data reported in PMC12427801, “Deciphering α-L-Fucosidase Activity Contribution in Human and Mouse: Tissue α-L-Fucosidase FUCA1 Meets Plasma α-L-Fucosidase FUCA2” (Cells, 2025).

Biological target: the molecule itself
Assay: SEC; Superdex 200 Increase 10/300 GL, McIlvaine buffer pH 4.6, 0.3 mL/min; purified protein; fractions tested by 4-MUF fucosidase activity (FUCA1) or H6-tag western blot (FUCA2-H6)

B1: H6-tagged human tissue α-L-fucosidase 1 (FUCA1-H6) (enzyme, UniProt P04066 32-466, looked up)
chain: QPPRRYTPDWPSLDSRPLPAWFDEAKFGVFIHWGVFSVPAWGSEWFWWHWQGEGRPQYQRFMRDNYPPGFSYADFGPQFTARFFHPEEWADLFQAAGAKYVVLTTKHHEGFTNWPSPVSWNWNSKDVGPHRDLVGELGTALRKRNIRYGLYHSLLEWFHPLYLLDKKNGFKTQHFVSAKTMPELYDLVNSYKPDLIWSDGEWECPDTYWNSTNFLSWLYNDSPVKDEVVVNDRWGQNCSCHHGGYYNCEDKFKPQSLPDHKWEMCTSIDKFSWGYRRDMALSDVTEESEIISELVQTVSLGGNYLLNIGPTKDGLIVPIFQERLLAVGKWLSINGEAIYASKPWRVQWEKNTTSVWYTSKGSAVYAIFLHWPENGVLNLESPITTSTTKITMLGIQGDLKWSTDPDKGLFISLPQLPPSAVPAEFAWTIKLTGVK
notes: human tissue α-L-fucosidase FUCA1; N-glycosylated; also called H6-tagged FUCA1; H6-tagged human fucosidase; source: HT1080 cells, stably expressing, conditioned medium, purified (Ni-NTA)
**Q.** Does B1 bind?
**A.** Result: binds

B2: untagged human tissue α-L-fucosidase 1 (FUCA1) (enzyme, UniProt P04066 32-466, looked up)
chain: B1 chain
notes: human tissue α-L-fucosidase FUCA1; untagged, secreted into the medium; N-glycosylated; also called untagged FUCA1; hFUCA1; source: CHO-K1 cells, stably expressing, conditioned medium, purified (ammonium sulfate precipitation, strong cation exchange)
**Q.** Does B2 bind?
**A.** Result: binds
